Experiment [1] concerns the target ACTR-Avi (Avi-tagged, biotinylated, Cy3B-labelled ACTR) (human). In words: FRET or BRET. For orientation: Bioluminescence resonance energy transfer reports proximity on the nanometre scale.
Another experiment addresses T1, NCBD1 NCBD (Mus musculus, UniProt P45481).
T1 chain: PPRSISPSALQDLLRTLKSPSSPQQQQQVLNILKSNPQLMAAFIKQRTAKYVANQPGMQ

The next experiment addresses T2, NCBD2 NCBD (Mus musculus, UniProt P45481).
T2 chain: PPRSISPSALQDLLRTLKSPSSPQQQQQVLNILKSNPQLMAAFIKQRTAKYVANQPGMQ

This passage reports kon and Kd results from PMC6102232 (2018).

What is called kon is the rate constant with which the complex forms. One may read the Kd as the concentration at which binding is half-saturated. A high value points to weaker binding.

The molecule “NCBD wt (single-cysteine variant labelled with CF680R) (domain or fragment)” yielded a kon in experiment [1] of 2.9e+08 M⁻¹ s⁻¹.

B1: ACTR ACTR (protein)
chain: GTQNRPLLRNSLDDLVGPPSNLEGQSDERALLDQLHTLLSNTDATGLEEIDRALGIPELVNQGQALEPKQD
Turning to B1, the Kd in the experiment with NCBD1 NCBD was found to be 78 nM; with NCBD2 NCBD it was 650 nM.
